Reference: publication PMC3362203 (Nature structural & molecular biology, 2011)
One block for each molecule: values may come before it.

Columns and labels:
[1] = biological target: bovine 1:1 sRP105–MD-1 complex (building block of the 2:2 complex) (bovine); test: crystal structure
[2] = biological target: bovine 1:1 sRP105–MD-1 complex (building block of the 2:2 complex) (bovine); test: SEC
[3] = biological target: 1:1 RP105 N402Q–MD-1 complex
SEC = biological target: the molecule itself; test: SEC

stoichiometry N [1]: 2 | stoichiometry N [2]: 2
Molecule: bovine 1:1 sRP105–MD-1 complex (building block of the 2:2 complex)

stoichiometry N [3]: 2
Molecule: 1:1 RP105 N402Q–MD-1 complex

B1: mouse 1:1 sRP105–MD-1 complex (wild type) (complex)
chain 1: TTSSDQKCIEKEVNKTYNCENLGLNEIPGTLPNSTECLEFSFNVLPTIQNTTFSRLINLTFLDLTRCQIYWIHEDTFQSQHRLDTLVLTANPLIFMAETALSGPKALKHLFFIQTGISSIDFIPLHNQKTLESLYLGSNHISSIKLPKGFPTEKLKVLDFQNNAIHYLSKEDMSSLQQATNLSLNLNGNDIAGIELGAFDSAVFQSLNFGGTQNLLVIFKGLKNSTIQSLWLGTFEDMDDEDISPAVFEGLCEMSVESINLQKHYFFNISSNTFHCFSGLQELDLTATHLSELPSGLVGLSTLKKLVLSANKFENLCQISASNFPSLTHLSIKGNTKRLELGTGCLENLENLRELDLSHDDIETSDCCNLQLRNLSHLQSLNLSYNEPLSLKTEAFKECPQLELLDLAFTRLKVKDAQSPFQNLHLLKVLNLSHSLLDISSEQLFDGLPALQHLNLQGNHFPKGNIQKTNSLQTLGRLEILVLSFCDLSSIDQHAFTSLKMMNHVDLSHNRLTSSSIEALSHLKGIYLNLASNRISIILPSLLPILSQQRTINLRQNPLDCTCSNIYFLEWYKENMQKLEDTEDTLCENPPLLRGVRLSDVTLSCS
chain 2: DHGSENGWPKHTACNSGGLEVVYQSCDPLQDFGLSIDQCSKQIQSNLNIRFGIILRQDIRKLFLDITLMAKGSSILNYSYPLCEEDQPKFSFCGRRKGEQIYYAGPVNNPGLDVPQGEYQLLLELYNENRATVACANATVTSS
stoichiometry N (SEC): 2

B2: human 1:1 sRP105–MD-1 complex (complex)
chain 1: WDQMCIEKEANKTYNCENLGLSEIPDTLPNTTEFLEFSFNFLPTIHNRTFSRLMNLTFLDLTRCQINWIHEDTFQSHHQLSTLVLTGNPLIFMAETSLNGPKSLKHLFLIQTGISNLEFIPVHNLENLESLYLGSNHISSIKFPKDFPARNLKVLDFQNNAIHYISREDMRSLEQAINLSLNFNGNNVKGIELGAFDSTIFQSLNFGGTPNLSVIFNGLQNSTTQSLWLGTFEDIDDEDISSAMLKGLCEMSVESLNLQEHRFSDISSTTFQCFTQLQELDLTATHLKGLPSGMKGLNLLKKLVLSVNHFDQLCQISAANFPSLTHLYIRGNVKKLHLGVGCLEKLGNLQTLDLSHNDIEASDCCSLQLKNLSHLQTLNLSHNEPLGLQSQAFKECPQLELLDLAFTRLHINAPQSPFQNLHFLQVLNLTYCFLDTSNQHLLAGLPVLRHLNLKGNHFQDGTITKTNLLQTVGSLEVLILSSCGLLSIDQQAFHSLGKMSHVDLSHNSLTCDSIDSLSHLKGIYLNLAANSINIISPRLLPILSQQSTINLSHNPLDCTCSNIHFLTWYKENLHKLEGSEETTCANPPSLRGVKLSDVKLSCG
chain 2: GGGGKAWPTHVVCSDSGLEVLYQSCDPLQDFGFSVEKCSKQLKSNINIRFGIILREDIKELFLDLALMSQGSSVLNFSYPICEAALPKFSFCGRRKGEQIYYAGPVNNPEFTIPQGEYQVLLELYTEKRSTVACANATIMCS
stoichiometry N (SEC): 2
